Test results published in the nanobody polyreactivity screen of Harvey et al. (2022).

Assay: yeast display, Sf9 membrane polyspecificity reagent, FACS + sequencing; frameworks hold sequencing errors
How it was run: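 Sorting gates, low and high (top ~1%), were placed on anti-HA fluorescence to track expression and on streptavidin fluorescence to track reagent binding. A clone's polyreactivity label is taken from the gate it came out of. The reagent was 10% biotinylated, detergent-solubilized Sf9 membrane, applied for 1 hour at 4 °C to galactose-induced yeast display cells.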

| Sequence | polyreactivity (PSR sort gate) |
| --- | --- |
| QVQLVESGGGLVQAGGSLRLSCAASGFIFTDYAMGWYRQAPGKERELVATISWSGSSTYYADSVKGRFTISRDNEKNTVYLQMNILKPEDTGVYYCAAEFWYTYPYLVDYWRQGTQVTVSS | low polyreactivity |
| PVQLVDSGGGLVQAGGSLRLSCGASGRTFRKYGIGWYRQAAGKERELVAGISRSGGTTYYADTVKGRFTISRDTAKNTVYLQMNSLKPEDTAVYYCAKRTGPSGEDYWGQGTQVTVSS | high polyreactivity |
| QVQLVESGGCLVQAGGRLRLSCAASGRIFYRYSMGWYRQAPGKERELVAAINDVGSTYYADSVKGRFTISRDNAKNTVYLQMNILKPEDTAVYYCNGVNEHQSDFVVPFDYNHWGQGTQVTVSS | low polyreactivity |
| QVQLVESGGGLVQAGGSLRLSCAASGSTFPSYTMGWYRLAPGKERELVAAITLSGGSTYYADSVKGRFTISRDKAKNTVSLQMNSQKPEDTAVYYCAAYSQRGYDYWGQGTQVTVSS | low polyreactivity |
| QVQLVESGGGLVQAGGSLRLSCAASGIIFSWYAMGWYRQAPGKERELVASITASGGSTYYADSVKGRFTISRDNAKNTVYLQMNSLKPEDTAVYYCAVRYGHRSFASVYVEYEYWGQGTQVTVSS | low polyreactivity |
| QVQLVESGGGLVQAGGSLRLSCAASGSTFWYNAMGWYRQAPGKERELVASITLSGARTYYADSVKGRFTISRDNAKNTVYLQMNSLKPEDTAVYYCAKRTGRVKYYYWGQGTQVTVSS | high polyreactivity |
| QVHLVESAAGFVQAGGSLRLSGAASGFILWYYTMGWYRQAPGKERELVAVIDWSGDSTYADSVKGRFTISLDNAKNSVYLQMNSLIPVDTAVYYWNADYFVVWARLEFNYWGQGTQVTVSS | low polyreactivity |
| QVQLVESGGGLVQAGGSLRLSCAASGYTFGINAMGWYRQAPGNERELVAAITTGGSTNYADSVKGRFTISRDNAKNTVYLQMNSLTPEDTAVYYCNASWDGWNANYWYPGAYYYWGQGTQVTVSS | low polyreactivity |
| QVQLVESGGGLVQAGGSLRISCAASGFIFRGNTMGWYRQAPGKERELVASITRGGGRTYYADSVKGRFTISRDNAKNTVYLQMNSLKPEDTAVYYCAARTRSDNSYHGGEYWGQGTQVTVSS | high polyreactivity |
| QVQLVESGGGLVQAGGSLRLSCAASGRTFDVNAMGWYRQAPGKERELVAAIRISGGSTYYADSVKGRFTISRDNAKITVYLQMNSLKPEDTAVYYCAAYERRYRNAYDYWGQGTQVTVSS | high polyreactivity |
| QVQLVETGGGLVQAGGSLRLSSAASGSTFAWYAMGWYRQAPGKEREFVAAIDQDDDSTYYADSVKGRFTISRDNAKNTVYLQMKSLKPEDTAVYYCAASSPWEQSNDQFYYWGQGTQVTVSS | low polyreactivity |
| QVQLVESGGGLVQAGGSLRLSCAASGSIFGSYAMGWYRQAPGKERELVAAISRSGGRTYYADSVKGRFTISRDNAKYTVYLQMNSLKPEDTAVYYCAADTYIGYDYWGQGTQVTVSS | high polyreactivity |
| QVQLVESGGGLVQAGGSLRLSCAASGLTFFKYTMGWYRQPPGKERELVSAINGGGSTNYADSVKGRFSISRDNAKNTVYLQMNSLKPEDTAVYYCAAGLQYGYDYWGQGTQVTVSS | low polyreactivity |
| QVQLVESGGGLVQAGGSLRLSCAASGIIFRVYTMGWYRQAPGKERELVAGISSGDSTSYADSVKGRFTISRDNAKNTVYLQMNSLKPEDTAVYYCNAVAYYSYSANFRNAYDYWGQGTQVTVSS | low polyreactivity |
| QVQLVESGGGLVQAGGSLRLSCAASGFIFGKNAMGWYRQAPGKERELVAVISWRGSSTYYADSVKGRFTISRDNAKNTVYLQMNSLKPEDTAVYYCAARYPARGTLYYWGQGTQVTVSS | low polyreactivity |
| QVQLVESGVALVQAAGSLRLRCAAYGSTFSYNAMGWYRQATGKERELVAAISGSGGTTYYADSVKGRFTISRDNAKNTVYLQMNSLKPEDTAVYYCAAELTRYRYFYHKRPMDYWGQGTQVTVSS | low polyreactivity |
| QVQLVESGGGLVQAGGSLRLSCAASGITSTVYAMGWYRQAPGKERELVAGISWSTSSTYYADSVKGRFTISRDNAKNTVYVQMNSLKPEDTAVYYCAKAGAYKYGYWGQGTQVTVSS | high polyreactivity |
| QVQLVDSGGGLVQAGGSHRLSCAASGSTFRRNAMGWYRQAPGKERELVAAITRGGSTNYADSVKGRFTISRDNAKNTVYLQMNSLNPEDTAVYYCARVYLGAYRERYVYPYDYWGQGTQVTVSS | high polyreactivity |
| QVQLVESGGGLVQAGGSLRLSCAASGLTIFVNAMGWYRQAPGKERELVATISCGGSTYYADSVKGRFTISRDNANNTVYLQLNSLKPEDSSVFYCNAADVGGQWWYPYTYNYWGQGTQVTVSS | low polyreactivity |
| QVQLVESAGGLVQAGGSLRLSCAATGLIFKYYAMVWYRQAPGKEREMVATITRGGGSTYYADSVKGRFTISRDNAKNTVYFQMNSLKPEDTAVYYCAKRTSWKYGYWGQGTQVTVSS | high polyreactivity |

| Sequence | polyreactivity (PSR sort gate) |
| --- | --- |
| QVQLVESGGGLVQAGGSLRLSCAASGRIFYRYAMGWYRQAPGKERELVAAITYSGSSTYYADSVKGRFTISRDNAKNTVYLQMNSLKPEDTAVYYCAARFQSTNGHKYYYWGQGTQVTVSS | high polyreactivity |
| QVQLVESGGGLVQAGGRLRLSCAASGSTLSANAMGWYSPAPGKERELVAAISRRSGGTYYADSVKGRFTISRDNAKNSVYLQMNSLKPEDTAVYYCIKVLKDPHTWGWVDYDYCGQGTQVTVSS | high polyreactivity |
| QVQLVESGGGLVQAGGSLRLSCAASGSIFFRYAMGWYRQAPGKERELVAAISDSGGTTYYADSVKGRFTISRDNAKNTVYLQMNSLKPEDTAVYYCAARFIYYSNRYYRYREFNYWGQGTQVTVSS | high polyreactivity |
| QVQLVESGGGLVQAGGSLRLSCAASGRTFFGNAMGWYRQAPGKERELVAVISQGGGSTYYADSVKGRFTISRDNAKNTVYLQMNSLKPEDTAVYYCAKRYPHVGSGQLGGTYNYWGQGTQVTVSS | low polyreactivity |
| QVQLVESGGGLVQAGGSLRLSCAASGSTFAPNAMGWYRQAPGKERELVAAISSGGDSTNYADYVKGRFTISRDNAKNTVYLQMNSLKPEDTAVYYCAHGYCFVAYDYWGQGTQVTVSS | low polyreactivity |
| QVQLVESGGGLVQAGGSLRLSCAASGRIFTTYAMGWYRQAPGKERELVAAISRSGGSTYYADSVKGRFTISRDNAKNTVYLQMNSLKTEDTAVYYCAAVPTSNSFRSSFYYWGQGTQVTVSS | high polyreactivity |
| QDQLVESGGGLVQAGGSLRLSCAASGFIFGRYAMGWYRQAPGKERELVATISRCGGSTYYADSVKGRFTISRDNAKKTVYLQMNSLKPEDTAVYYCAATYYQLFGTILHGYWGQGTQVTVSS | low polyreactivity |
| QVQLVESGGGLVQAGGSLRLSCAASGYIFGRNAMGWYRQAPGKERELVAVSSSRGSRTYYADSVKGRFTISRDNAKNTVYLQMNSLKPEDTAVYYCAVRGVVNFDYWGQGTQVTVSS | high polyreactivity |
| QVQLVESGGGLVQAGGSLRLSCAASGSIFWTNVMGWYRQAPGKERELVAAISYSDGSTYYADSVKGRFTISRDNAKNTVYLQMNSLKPEDTAVYYCAADQYYYWGGYDYWGQGTQVTVSS | low polyreactivity |
| QVQLVESGGGLVQAGGSLRLSCAASGRIFYPNGMGWYRQAPGKERELVAAITGSGGSTYYADSVKGRFTISRDNAKNTVYLQMNSLIPEDTAVYYCAATWRYYLYPLGPHEFDYWGQGTQVTVSS | low polyreactivity |
| QDQLVESGGGLVQAGGSLRLSCAASGSIFYYYVMGWYRQETGKEREFVAAISWGGDSTYYADSVKGRFTISRDNAKNTVYLQMNSLKTEDTAVYYCKADYPWSVLAYDYWGQGTQVTVSS | low polyreactivity |
| QVQLVESGGGLVQAGGSLRLSCAASGSTFNRNAMGWYRQAPGKERELVAAISWRGDSTSYADSVKGRFTISRDNAKNTVYLQMNSLKPEDTAVYYCATAHDYAFYRYWYVPSEYNYWGQGSQVTVSS | low polyreactivity |
| QVQLVESGGGLDQAGGSLRLSCASGRIFKKNAMGWYRQAPGNERELVAGITISGGRTYYADSVKGRFTISRDNAKNTVYLQMNSVKPEDTAVYYCNAGPDRRVSYYRLLDHWGQGTQVTVSS | low polyreactivity |
| QVQLVESGGGLVQAGGSLRLSCAASGRTFTEYAMGWYRQAPGKERELVARISIGDSTYYADSVKGRFTISRDNAKNTVYLQMNSLKPEDTAVYYCNAEYSRSYRYDEGYWGQGTQVTVSS | low polyreactivity |
| QVQLVESGGGLVQAGGSLRLSCAASGRIFSTYAMGWYRQAPGKERELVAAINKIGGSTYYADSVKGRFTISRDNAKNTVYLQMNSLIPEDTAVYYCAADAPYYPVRRYYYWGQGTQVTVSS | low polyreactivity |
| QVQLVESGGGLVQAGGSLRLSCAASGSIFNWYAMGWYRQAPGNERELVADISWSDGDTYYADSVKGRFSISRDNAKNTDYLQMNSLKPEDTAVYYSAAASNLYYPYYVLGDPYDYWGQGTQVTVSS | low polyreactivity |
| QVQLVESGGGLVQAGGTLRLSCAASGFIFAGYAMAWYRHAPGKERELVAASSWDGGSTYFADSVKGRFTISRDNAKHTVYLQMNSLIPEDTAGYYCAAKYFRHGPATYDYWGQGTQVTVSS | low polyreactivity |
| QDQLVESGRGLVQAGGSLRLSCAASGINIPVYAMGWYRKAPRKERELLAAISSGGSTYYADSVKGRFTISRDNAKNTVYLQMNSLKPEDTAVYYCAAATRSAKYRFGYWGQGTQVTVSS | high polyreactivity |
| QVQLVESGGGLVQAGGSLRLSCAASGRIFNKNAMGWYRQAPGKERELVAAITYSGGSTYYADSVKGRFTISRDNAKNTVYLQMNSLKPEDTAVYYSARDLYYVYSFAPYRYEYWGQGTQVTVSS | low polyreactivity |
| QVQLVETGGGLVQAGGSLRLSCAASRSIFLYYAMGWYRQAPGKERELVAAISYSGSGTYADSVKGRFTISRDNAKNTVYLEMNSLKPEDTAVYYCNVDYGSYSYDYWGQGTQVTVSS | low polyreactivity |
